{"source": "paper doi:10.1101/2025.11.18.689095", "about": "(2025)", "key": {"[1]": {"biological_target": "T1, human Tom70 (residues 108–608) (human, UniProt O94826 108-608)", "T1 chain": "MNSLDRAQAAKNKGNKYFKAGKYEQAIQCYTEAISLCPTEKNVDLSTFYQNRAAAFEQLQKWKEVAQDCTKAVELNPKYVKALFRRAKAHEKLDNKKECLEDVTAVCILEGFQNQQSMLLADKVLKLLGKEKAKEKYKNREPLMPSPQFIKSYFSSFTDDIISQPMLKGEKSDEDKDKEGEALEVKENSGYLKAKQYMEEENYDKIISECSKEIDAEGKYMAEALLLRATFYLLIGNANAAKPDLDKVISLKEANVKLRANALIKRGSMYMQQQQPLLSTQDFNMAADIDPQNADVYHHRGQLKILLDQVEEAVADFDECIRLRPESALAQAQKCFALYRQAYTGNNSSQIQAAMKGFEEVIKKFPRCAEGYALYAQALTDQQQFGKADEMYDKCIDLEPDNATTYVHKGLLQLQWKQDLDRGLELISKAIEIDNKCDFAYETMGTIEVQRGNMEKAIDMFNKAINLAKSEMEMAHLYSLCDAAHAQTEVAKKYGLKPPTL", "test": "ITC; average"}, "[2]": {"biological_target": "T1, human Tom70 (residues 108–608)", "test": "ITC; run 3"}, "[3]": {"biological_target": "T1, human Tom70 (residues 108–608)", "test": "ITC; run 1"}, "[4]": {"biological_target": "T1, human Tom70 (residues 108–608)", "test": "ITC; run 2"}, "[5]": {"biological_target": "T2, Tom70:Orf9b_(Helix) complex (human | SARS-CoV-2, UniProt O94826 108-608)", "T2 chain 1": "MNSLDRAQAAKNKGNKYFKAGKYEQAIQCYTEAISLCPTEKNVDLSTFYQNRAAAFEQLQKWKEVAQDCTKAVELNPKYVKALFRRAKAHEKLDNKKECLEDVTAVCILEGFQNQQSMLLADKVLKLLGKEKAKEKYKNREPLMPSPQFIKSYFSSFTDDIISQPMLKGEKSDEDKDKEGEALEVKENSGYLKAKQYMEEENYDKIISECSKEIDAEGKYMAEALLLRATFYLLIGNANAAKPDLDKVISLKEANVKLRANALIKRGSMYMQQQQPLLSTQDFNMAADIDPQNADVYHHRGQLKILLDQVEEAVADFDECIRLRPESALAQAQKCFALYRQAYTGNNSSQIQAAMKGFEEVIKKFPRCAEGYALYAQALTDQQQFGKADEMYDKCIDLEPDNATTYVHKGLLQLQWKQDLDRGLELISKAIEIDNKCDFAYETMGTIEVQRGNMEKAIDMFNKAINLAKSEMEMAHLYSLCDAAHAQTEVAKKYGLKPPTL", "T2 chain 2": "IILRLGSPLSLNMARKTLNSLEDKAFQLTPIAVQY", "test": "ITC"}, "[6]": {"biological_target": "T1, human Tom70 (residues 108–608)", "test": "ITC"}, "[7]": {"biological_target": "T2, Tom70:Orf9b_(Helix) complex", "test": "ITC"}}, "note": "Several values for one entry are separate records, joined by “and”; a condition that tells them apart may be missing. Identical values can stand only once. Like-named read-outs stand apart in the source and are kept apart here. Where no end group is shown, it is not given here."}
{"binder": "YDTSRMEEVD-OH", "note": "[Hsp90_(EEVD) peptide]", "values": [{"measurement": "Kd", "setting": "[1]", "result": 11.9, "unit": "µM"}, {"measurement": "Kd", "setting": "[2]", "result": 11.9, "unit": "µM"}, {"measurement": "Kd", "setting": "[3]", "result": 12.8, "unit": "µM"}, {"measurement": "Kd", "setting": "[4]", "result": 10.9, "unit": "µM"}, {"measurement": "Kd", "setting": "[5]", "result": 12, "unit": "µM"}, {"measurement": "Kd", "setting": "[6]", "result": 12, "unit": "µM"}, {"measurement": "Kd", "setting": "[7]", "result": "12.4 µM and 12.8 µM and 12.3 µM and 11.8 µM"}]}
